Measurements taken from US20240181006A1, “POLYPEPTIDES BINDING ADAMTS5, MMP13 AND AGGRECAN” (Merck Patent GmbH, priority 2017, published 2024).

Assays:
[1] = target: T1, human ADAMTS5 (Homo sapiens, UniProt Q9UNA0); test: FRET-based human ADAMTS5 enzymatic assay; assay type: biochemical
T1 sequence (Q9UNA0 262-930): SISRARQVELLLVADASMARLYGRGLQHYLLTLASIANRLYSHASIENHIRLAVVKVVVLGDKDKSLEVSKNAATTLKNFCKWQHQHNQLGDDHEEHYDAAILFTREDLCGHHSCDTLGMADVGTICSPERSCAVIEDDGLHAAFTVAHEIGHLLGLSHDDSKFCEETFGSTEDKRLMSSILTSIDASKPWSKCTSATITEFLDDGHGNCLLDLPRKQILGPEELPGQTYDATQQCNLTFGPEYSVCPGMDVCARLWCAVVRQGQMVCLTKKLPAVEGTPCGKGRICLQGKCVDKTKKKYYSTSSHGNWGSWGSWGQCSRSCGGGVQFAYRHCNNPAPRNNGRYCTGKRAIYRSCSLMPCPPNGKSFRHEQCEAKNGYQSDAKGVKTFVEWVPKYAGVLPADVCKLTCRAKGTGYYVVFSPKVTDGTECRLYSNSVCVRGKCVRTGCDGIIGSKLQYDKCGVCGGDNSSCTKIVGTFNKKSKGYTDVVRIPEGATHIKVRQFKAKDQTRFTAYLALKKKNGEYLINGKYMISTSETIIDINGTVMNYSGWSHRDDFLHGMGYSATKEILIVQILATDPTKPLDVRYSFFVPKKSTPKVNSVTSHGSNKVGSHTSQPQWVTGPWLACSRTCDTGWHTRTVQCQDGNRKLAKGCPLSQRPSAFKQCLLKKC
Protocol: In short, a periplasmic extract of ISVD 02F03 was tested for binding to recombinant human ADAMTS5 by binding ELISA. Next, it was confirmed that ISVD 02F03 was able to prevent ADAMTS5-mediated cleavage of Aggrecan in a FRET-based human ADAMTS5 enzymatic assay. Next to the FRET-based assay, an AlphaLISA (Perkin Elmer, Waltham, MA, US) based human ADAMTS5 assay with a biotinylated 43-mer Aggrecan oligopeptide as substrate was performed. Upon ADAMTS5 cleavage of this substrate, a biotinylated ARGSV neo-epitope product is released and can be detected by streptavidin-AlphaScreen donor beads and an α-neo-epitope (“ARGSV”) antibody captured on anti-mouse IgG-coated AlphaLISA acceptor beads, resulting in the generation of a luminescence AlphaScreen signal upon laser excitation. To determine the ability of ISVD 02F03 to prevent ADAMTS5-mediated cleavage of the substrate, the decrease in signal was analysed in function of ISVD 02F03 concentration and IC50 values were calculated.

[2] = tested on: bovine cartilage explant chips; test: bovine cartilage explant assay, IL-1α induced GAG release (02F03); assay type: cell-based
Protocol: In addition, ISVD 02F03 was further evaluated for its ability to block cartilage degradation in an ex vivo assay, in which the substrate is presented in a condition closer to the physiological condition compared to biochemical assays. In brief, bovine cartilage explant chips (diameter 4 mm) were prepared freshly from cow knee joints and incubated in 96-well plates in presence of IL-1α to induce cartilage degradation. As a measure of cartilage/Aggrecan degradation, the release of glycosaminoglycan (GAG) was detected in the supernatant after 5 days of incubation (37° C., 7.5% C02) via the metachromatic dye 1,9 dimethylmethylene blue ([…] at 633 nm). Chondroitin sulphate was included as assay standard. Efficacy was defined by means of the IL-1α-induced controls without compound (0%) and in presence of MSC2310852A (100% effect).

[3] = target: human MMP14 (Homo sapiens, UniProt P50281); test: FRET-based human MMP14 assay (selectivity of 02F03); assay type: biochemical; settings: data not shown
Protocol: (§1) To confirm the selectivity of ISVD 02F03 for ADAMTS5, inhibition of the enzymatic activity of MMP1, MMP14 and ADAMTS4 was evaluated via FRET-based assays and a human ADAMTS4 AlphaLISA, with the respective enzymes.
(§2) Activated human MMP1 or MMP14 was incubated for 30 minutes at room temperature with 10 μl of dilution series of ISVD 02F03. After incubation, 20 μl of respectively 5 μM or 2.5 μM fluorogenic peptide substrate (Mca-PLGL-Dpa-AR-NH2 Fluorogenic MMP Substrate (R&D Systems cat #ES001)) was added. The ability of ISVD 02F03 to prevent MMP1- and MMP14-mediated cleavage was monitored every minute for 2 hours at 37° C. on a Tecan Infinite M1000 plate reader.

[4] = target: T2, human MMP1 (Homo sapiens, UniProt P03956); test: FRET-based human MMP1 assay (selectivity of 02F03); assay type: biochemical; settings: data not shown
T2 sequence (P03956 100-469): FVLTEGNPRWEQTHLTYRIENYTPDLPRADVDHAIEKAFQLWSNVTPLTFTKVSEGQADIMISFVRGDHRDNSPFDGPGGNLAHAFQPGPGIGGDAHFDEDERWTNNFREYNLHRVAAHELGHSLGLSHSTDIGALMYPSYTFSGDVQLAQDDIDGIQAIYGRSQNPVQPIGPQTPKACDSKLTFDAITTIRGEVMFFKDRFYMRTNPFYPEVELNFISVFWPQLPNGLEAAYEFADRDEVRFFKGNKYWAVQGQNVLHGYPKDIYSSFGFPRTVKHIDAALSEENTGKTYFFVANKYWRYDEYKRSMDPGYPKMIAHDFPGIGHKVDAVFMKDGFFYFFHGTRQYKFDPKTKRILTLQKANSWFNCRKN
Protocol: as §1, §2

B1: ISVD 02F03: immunoglobulin single variable domain which specifically binds ADAMTS5 (protein)
VHH: EVQLVESGGGVVQPGGSLRLSCAASGRTVSSYAMGWFRQAPGKEREFVAGISRSAERTYYVDSLKGRFTISRDNSKNTVYLQMNSLRPEDTALYYCAADLDPNRIFSREEYAYWGQGTLVTVSS
modifications: Description of Artificial Sequence: Synthetic anti-ADAMTS5 immunoglobulin single variable domain (ISVD)
Human FRET % inhibition [1]: 89%
IC50 ([2]; IL-1α, GAG release after 5 days): 14 nM
IC50 times lower than mAb 12F4 in bovine explant assay ([2]; versus bivalent mAb 12F4): about 50 times
inhibition of MMP14 activity [3]: did not show any inhibition
inhibition of MMP1 activity [4]: did not show any inhibition
